Results as given in patent US20020128201A1 (GREEN PEPTIDE, published 2002).

Target: T1, HLA-A2402 (human, UniProt P04439-2 25-302 at identity 0.92))
T1 MHC heavy: not shown
Test: cell-based or functional assay

Binder | lowest peptide concentration at which enhancement of IFN-γ production by KE4-CTLs was detected (peptide-pulsed ClR/A2402 cells) [nM]
TFDYLRSVL [Lck486-494] | ~1
HYTNASDGL [Lck208-216] | ≥ 100
DYLRSVLEDF [Lck488-497] | ~1
